Measured values: publication PMC7057269 (Journal of Molecular Biology, 2020)
* marks the point of attachment. Biotin = O=C1N[C@H]2[C@H](CS[C@H]2CCCCC(=O)*)N1; linker = not defined here

Experiments:
Fab317 = biological target: Fab317; design: method as in PMID 29138320; details: Fab317 with NPNA3; cited from earlier work
Fab397 = experiment: Isothermal titration calorimetry (ITC), NANP repeat peptides to Fab397; type: binding, human; details: for TΔS / ΔH / ΔS / Kd / No. of sites (N-value): ITC, arithmetic mean ± SD, n = 4; for TΔS / ΔH / ΔS: Fab397, 25 °C; for Kd / No. of sites (N-value): peptide in syringe, 8.9 μM Fab397 in cell, DPBS, 25 °C, single-site model
Procedure: Titrations were performed on a MicroCal Auto-iTC200 (GE Healthcare, Chicago, IL). Prior to the experiments, wild-type Fab397 was extensively dialyzed against Dulbecco's PBS (Thermo Fisher, Waltham, MA). […] The Fab and peptide concentrations were determined by UV absorbance at 280 nm and 205 nm. Molar extinction coefficients for the peptides at 205 nm were estimated using a previously published method. The titrations were all performed with peptides in the syringe and antibodies in the cell and consisted of 16 injections of 2.45 μL peptide at a rate of 0.5 μl/s […], with injection duration of 4.9 s, injection interval of 180 s, and reference power of 5 μCal. Experiments were conducted in quadruplet (N = 4) at 25 °C. Fitting of the integrated titration peaks was performed with Origin 7.0 software using a single-site binding model. The first data point was excluded from the fit as commonly done.
Data for sporozoite ELISA assay (N = 2) were fitted and plotted using GraphPad Prism, version 7.0. For mouse liver burden assay (N = 5 mice), data were compared for significance using a Mann–Whitney U test with p < 0.05 indicated a statistically significant difference. […] All statistical parameters and graphs for the mouse liver burden assay were calculated and plotted using R with the Hmisc and ggplot2 packages. Each ITC experiment was performed with four replicates (N = 4), and the data were reported as the arithmetic mean ± SD.

[1] = biological target: T1, biotinylated NPNA3 peptide (Biotin-linker-NPNANPNANPNA-NH2) (Plasmodium falciparum, synthetic CSP …, reading uncertain); experiment: BLI; details: both partners purified
T1 construct: not shown: biotin, N-terminal, kept
T1 chain: {Biotin-linker}-NPNANPNANPNA-NH2

[2] = biological target: T2, NPNA8 peptide (Ac-NPNANPNANPNANPNANPNANPNANPNANPNA-NH2) (Plasmodium falciparum, synthetic CSP …); experiment: negative-stain electron microscopy; details: both partners purified
T2 construct: also called (NANP)8
T2 chain: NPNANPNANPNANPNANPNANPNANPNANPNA

[3] = biological target: T3, NPNA4 peptide (Ac-NPNANPNANPNANPNA-NH2) (Plasmodium falciparum, synthetic CSP …); experiment: ITC; details: both partners purified
T3 construct: also called (NANP)4
T3 chain: Ac-NPNANPNANPNANPNA-NH2

[4] = biological target: T2, NPNA8 peptide …; experiment: ITC; details: both partners purified

Molecule: NPNA3: NPNA3 peptide, bound by Fab317 in ref 29 ({Biotin-linker}-NPNANPNANPNA-NH2; reading uncertain; also: linker not given here)
- Kd (Fab317): 78 ± 16 nM

Molecule: CC(=O)N[C@@H](CC(N)=O)C(=O)N1CCC[C@H]1C(=O)N[C@@H](CC(N)=O)C(=O)N[C@@H](C)C(=O)N[C@@H](CC(N)=O)C(=O)N1CCC[C@H]1C(=O)N[C@@H](CC(N)=O)C(=O)N[C@@H](C)C(=O)N[C@@H](CC(N)=O)C(=O)N1CCC[C@H]1C(=O)N[C@@H](CC(N)=O)C(=O)N[C@@H](C)C(=O)N[C@@H](CC(N)=O)C(=O)N1CCC[C@H]1C(=O)N[C@@H](CC(N)=O)C(=O)N[C@@H](C)C(=O)N[C@@H](CC(N)=O)C(=O)N1CCC[C@H]1C(=O)N[C@@H](CC(N)=O)C(=O)N[C@@H](C)C(=O)N[C@@H](CC(N)=O)C(=O)N1CCC[C@H]1C(=O)N[C@@H](CC(N)=O)C(=O)N[C@@H](C)C(=O)N[C@@H](CC(N)=O)C(=O)N1CCC[C@H]1C(=O)N[C@@H](CC(N)=O)C(=O)N[C@@H](C)C(=O)N[C@@H](CC(N)=O)C(=O)N1CCC[C@H]1C(=O)N[C@@H](CC(N)=O)C(=O)N[C@@H](C)C(N)=O [NPNA8]
- binding stoichiometry inferred from N-value (Fab397; ITC with Fab397, peptide:Fab ratio, or number of Fabs per peptide as worded): two Fabs bind per peptide
- TΔS (Fab397): -30.024 ± 0.179 kcal/mol
- ΔH (Fab397): -40.09 ± 0.143 kcal/mol
- ΔS (Fab397): −100.7 ± 0.6 cal^−1·mol^−1·K^−1
- Kd (Fab397): 41 ± 3 nM
- No. of sites (N-value) (Fab397): 0.56 ± 0.01

Molecule: CC(=O)N[C@@H](CC(N)=O)C(=O)N1CCC[C@H]1C(=O)N[C@@H](CC(N)=O)C(=O)N[C@@H](C)C(=O)N[C@@H](CC(N)=O)C(=O)N1CCC[C@H]1C(=O)N[C@@H](CC(N)=O)C(=O)N[C@@H](C)C(=O)N[C@@H](CC(N)=O)C(=O)N1CCC[C@H]1C(=O)N[C@@H](CC(N)=O)C(=O)N[C@@H](C)C(=O)N[C@@H](CC(N)=O)C(=O)N1CCC[C@H]1C(=O)N[C@@H](CC(N)=O)C(=O)N[C@@H](C)C(N)=O [NPNA4]
- TΔS (Fab397): -9.884 ± 0.147 kcal/mol
- ΔH (Fab397): -19.915 ± 0.102 kcal/mol
- ΔS (Fab397): −33.2 ± 0.5 cal^−1·mol^−1·K^−1
- Kd (Fab397): 44 ± 3 nM
- No. of sites (N-value) (Fab397): 1.14 ± 0.01

Molecule: CC(=O)N[C@@H](CC(N)=O)C(=O)N1CCC[C@H]1C(=O)N[C@@H](CC(N)=O)C(=O)N[C@@H](C)C(=O)N[C@@H](CC(N)=O)C(=O)N1CCC[C@H]1C(=O)N[C@@H](CC(N)=O)C(=O)N[C@@H](C)C(N)=O [NPNA2]
- TΔS (Fab397): -5.859 ± 0.593 kcal/mol
- ΔH (Fab397): -13.303 ± 0.556 kcal/mol
- ΔS (Fab397): −19.7 ± 2.0 cal^−1·mol^−1·K^−1
- No. of sites (N-value) (Fab397): 1.25 ± 0.02

B1: Fab317 wild type (Fab, V domains shown)
VH: QMQLVESGGGVVQPGRSLRLSCTASGFTFSTYAMHWVRQSPGQGLQWVAVISYHSTNKYYEDSVRGRFTISRDNSKNTLYLQMNSLRAEDTAVYYCARDGYSSSFFDFWGQGTLVTVSS
VL: DIQMTQSPSTLSASVGDRVAITCRASQSISRWLAWYQQQPGKAPKLLMSGASVLESGVPSRFSGSGSGTEFTLTISSLQPDDFATYYCQHYNSYFVTFGQGTKVEIK
- other [1]: 100%

B2: Fab317 LW32A (Fab, V domains shown)
VH: QMQLVESGGGVVQPGRSLRLSCTASGFTFSTYAMHWVRQSPGQGLQWVAVISYHSTNKYYEDSVRGRFTISRDNSKNTLYLQMNSLRAEDTAVYYCARDGYSSSFFDFWGQGTLVTVSS
VL: DIQMTQSPSTLSASVGDRVAITCRASQSISRALAWYQQQPGKAPKLLMSGASVLESGVPSRFSGSGSGTEFTLTISSLQPDDFATYYCQHYNSYFVTFGQGTKVEIK
- other [1]: 20%

B3: Fab311 wild type (Fab, V domains shown)
VH: QVQLVESGGGVVPPGRSLRLSCATSGFTFSNYGMHWVRQAPGKGLEWVAIIWYDGSRNFYAASVEGRFTISRDNSKNTLYLQMNSLRVEDTAVYYCARAAYYDTSGYGDYWGQGTLVTVSS
VL: QSVLTQPPSVSGAPGQTVTISCTGGSSNIGAGYDVHWYQQLPGTAPKLLIYGNINRPSGVPDRFSGSKSGTSASLAITGLQAEDEADYYCQSYDRRLSGSWVFGGGTKLTVL
- binding result [1]: binds

B4: Fab311 HW52A (Fab, V domains shown)
VH: QVQLVESGGGVVPPGRSLRLSCATSGFTFSNYGMHWVRQAPGKGLEWVAIIAYDGSRNFYAASVEGRFTISRDNSKNTLYLQMNSLRVEDTAVYYCARAAYYDTSGYGDYWGQGTLVTVSS
VL: QSVLTQPPSVSGAPGQTVTISCTGGSSNIGAGYDVHWYQQLPGTAPKLLIYGNINRPSGVPDRFSGSKSGTSASLAITGLQAEDEADYYCQSYDRRLSGSWVFGGGTKLTVL
- other [1]: 26%

B5: Fab397 wild type (Fab, V domains shown)
VH: EVQLVKSGGGLVKPGGSLRLSCAVSGFTFTDAWMSWVRQAPGKGPEWVGRIKSNPDGGTTDYAAPVRGRFTISRDDSKNTLYLQMNNLKTEDTAVYYCITDRDFYRSGGSWGQGTLVTV
VL: DIVMTQSPLSLPVTPGEPASISCRSRQSLLYSNGDNYLDWYLQKPGQSPQLLIYLGSNRAPGVPDRFSGSGSGTDFTLKISRVEAEDVGVYYCMQTLQTPHTFGQGTKLEIK
- binding result [1]: binds
- stoichiometry N [2]: 2
- Kd [3]: 44 nM
- dH [3]: -19.9 kcal/mol
- stoichiometry N [3]: 1.14
- Kd [4]: 41 nM
- dH [4]: -40.1 kcal/mol
- stoichiometry N [4]: 0.56

B6: Fab397 LD30A (Fab, V domains shown)
VH: EVQLVKSGGGLVKPGGSLRLSCAVSGFTFTDAWMSWVRQAPGKGPEWVGRIKSNPDGGTTDYAAPVRGRFTISRDDSKNTLYLQMNNLKTEDTAVYYCITDRDFYRSGGSWGQGTLVTV
VL: DIVMTQSPLSLPVTPGEPASISCRSRQSLLYSNGANYLDWYLQKPGQSPQLLIYLGSNRAPGVPDRFSGSGSGTDFTLKISRVEAEDVGVYYCMQTLQTPHTFGQGTKLEIK
- other [1]: 66%

B7: Fab397 HR96A (Fab, V domains shown)
VH: EVQLVKSGGGLVKPGGSLRLSCAVSGFTFTDAWMSWVRQAPGKGPEWVGRIKSNPDGGTTDYAAPVRGRFTISRDDSKNTLYLQMNNLKTEDTAVYYCITDADFYRSGGSWGQGTLVTV
VL: DIVMTQSPLSLPVTPGEPASISCRSRQSLLYSNGDNYLDWYLQKPGQSPQLLIYLGSNRAPGVPDRFSGSGSGTDFTLKISRVEAEDVGVYYCMQTLQTPHTFGQGTKLEIK
- other [1]: 77%

B8: Fab397 HD95A (Fab, V domains shown)
VH: EVQLVKSGGGLVKPGGSLRLSCAVSGFTFTDAWMSWVRQAPGKGPEWVGRIKSNPDGGTTDYAAPVRGRFTISRDDSKNTLYLQMNNLKTEDTAVYYCITARDFYRSGGSWGQGTLVTV
VL: DIVMTQSPLSLPVTPGEPASISCRSRQSLLYSNGDNYLDWYLQKPGQSPQLLIYLGSNRAPGVPDRFSGSGSGTDFTLKISRVEAEDVGVYYCMQTLQTPHTFGQGTKLEIK
- binding result [1]: no binding (tested: 2000 nM)

B9: Fab397 LY32A (Fab, V domains shown)
VH: EVQLVKSGGGLVKPGGSLRLSCAVSGFTFTDAWMSWVRQAPGKGPEWVGRIKSNPDGGTTDYAAPVRGRFTISRDDSKNTLYLQMNNLKTEDTAVYYCITDRDFYRSGGSWGQGTLVTV
VL: DIVMTQSPLSLPVTPGEPASISCRSRQSLLYSNGDNALDWYLQKPGQSPQLLIYLGSNRAPGVPDRFSGSGSGTDFTLKISRVEAEDVGVYYCMQTLQTPHTFGQGTKLEIK
- binding result [1]: no binding (tested: 2000 nM)

B10: Fab397 HW33A (Fab, V domains shown)
VH: EVQLVKSGGGLVKPGGSLRLSCAVSGFTFTDAAMSWVRQAPGKGPEWVGRIKSNPDGGTTDYAAPVRGRFTISRDDSKNTLYLQMNNLKTEDTAVYYCITDRDFYRSGGSWGQGTLVTV
VL: DIVMTQSPLSLPVTPGEPASISCRSRQSLLYSNGDNYLDWYLQKPGQSPQLLIYLGSNRAPGVPDRFSGSGSGTDFTLKISRVEAEDVGVYYCMQTLQTPHTFGQGTKLEIK
- binding result [1]: no binding (tested: 2000 nM)
